Test results from the supplement of paper PMC9112550, “Optimization of the antimicrobial peptide Bac7 by deep mutational scanning” (BMC Biology, 2022).

Tested on: Escherichia coli TOP10
Test: shrunken log2 fold change of peptide-encoding DNA abundance (4.5 h post-induction vs induction); higher = less antimicrobial activity (less host growth inhibition)
Conditions: time post-induction: 4.5 h; library: site-saturation at positions 5, 18, 19, 20
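Further: peptides expressed intracellularly from a pBAD plasmid library in pooled LB shake-flask culture, induced with 0.3% L-arabinose, DNA abundance read by NGS, three biological replicates, DESeq2 with apeglm shrinkage.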

## RRIRCRPPRLPRPRPRPAKQPRP
  shrunken log2 fold change: -0.0271

## RRIRHRPPRLPRPRPRPRIFPRP
  shrunken log2 fold change: -0.121

## RRIRRRPPRLPRPRPRPCKMPRP
  shrunken log2 fold change: -0.0577

## RRIRWRPPRLPRPRPRPYPDPRP
  shrunken log2 fold change: -0.106

## RRIRIRPPRLPRPRPRPTRPPRP
  shrunken log2 fold change: 0.763

## RRIRHRPPRLPRPRPRPCVLPRP
  shrunken log2 fold change: -0.14

## RRIRVRPPRLPRPRPRPAYFPRP
  shrunken log2 fold change: -0.325

## RRIRHRPPRLPRPRPRPCCAPRP
  shrunken log2 fold change: -0.0125

## RRIRARPPRLPRPRPRPNVFPRP
  shrunken log2 fold change: 0.258

## RRIRRRPPRLPRPRPRPSFMPRP
  shrunken log2 fold change: -0.106

## RRIRYRPPRLPRPRPRPRICPRP
  shrunken log2 fold change: 0.00835

## RRIRKRPPRLPRPRPRPSMKPRP
  shrunken log2 fold change: -0.212

## RRIRVRPPRLPRPRPRPVLWPRP
  shrunken log2 fold change: 0.453

## RRIRARPPRLPRPRPRPPWLPRP
  shrunken log2 fold change: 0.495

## RRIRLRPPRLPRPRPRPSLMPRP
  shrunken log2 fold change: 0.126

## RRIRNRPPRLPRPRPRPAIQPRP
  shrunken log2 fold change: -0.0231

## RRIRCRPPRLPRPRPRPSARPRP
  shrunken log2 fold change: 0.16

## RRIRFRPPRLPRPRPRPWEAPRP
  shrunken log2 fold change: -0.0969

## RRIRNRPPRLPRPRPRPYNSPRP
  shrunken log2 fold change: -1.61

## RRIRVRPPRLPRPRPRPSNKPRP
  shrunken log2 fold change: -0.751

## RRIRWRPPRLPRPRPRPKHMPRP
  shrunken log2 fold change: -0.063

## RRIRGRPPRLPRPRPRPCDFPRP
  shrunken log2 fold change: 0.102

## RRIRPRPPRLPRPRPRPLLGPRP
  shrunken log2 fold change: 0.191

## RRIRPRPPRLPRPRPRPACDPRP
  shrunken log2 fold change: 0.00904

## RRIRMRPPRLPRPRPRPVFTPRP
  shrunken log2 fold change: 0.128

## RRIRGRPPRLPRPRPRPINVPRP
  shrunken log2 fold change: -0.248

## RRIRQRPPRLPRPRPRPLQRPRP
  shrunken log2 fold change: -0.0166

## RRIRWRPPRLPRPRPRPKGTPRP
  shrunken log2 fold change: -0.0654

## RRIRRRPPRLPRPRPRPSTIPRP
  shrunken log2 fold change: -0.121

## RRIRERPPRLPRPRPRPSRWPRP
  shrunken log2 fold change: 1.41

## RRIRARPPRLPRPRPRPQQIPRP
  shrunken log2 fold change: 0.218

## RRIRKRPPRLPRPRPRPKLPPRP
  shrunken log2 fold change: 0.244

## RRIRTRPPRLPRPRPRPQSSPRP
  shrunken log2 fold change: -0.08

## RRIRNRPPRLPRPRPRPYVCPRP
  shrunken log2 fold change: -0.363

## RRIRVRPPRLPRPRPRPYFIPRP
  shrunken log2 fold change: -0.72

## RRIRSRPPRLPRPRPRPICSPRP
  shrunken log2 fold change: 0.119

## RRIRVRPPRLPRPRPRPWNTPRP
  shrunken log2 fold change: -0.878

## RRIRNRPPRLPRPRPRPEVIPRP
  shrunken log2 fold change: 0.00635

## RRIRDRPPRLPRPRPRPEMCPRP
  shrunken log2 fold change: 0.0536

## RRIRRRPPRLPRPRPRPNMCPRP
  shrunken log2 fold change: -0.368

## RRIRTRPPRLPRPRPRPGCPPRP
  shrunken log2 fold change: 0.086

## RRIRGRPPRLPRPRPRPKEKPRP
  shrunken log2 fold change: 0.0377

## RRIRHRPPRLPRPRPRPLHMPRP
  shrunken log2 fold change: -0.0732

## RRIRQRPPRLPRPRPRPSLHPRP
  shrunken log2 fold change: -0.64

## RRIRMRPPRLPRPRPRPQKHPRP
  shrunken log2 fold change: 0.159

## RRIRIRPPRLPRPRPRPSRFPRP
  shrunken log2 fold change: -0.278

## RRIRQRPPRLPRPRPRPTQGPRP
  shrunken log2 fold change: 2.34

## RRIRCRPPRLPRPRPRPTFEPRP
  shrunken log2 fold change: -0.279

## RRIRKRPPRLPRPRPRPGWDPRP
  shrunken log2 fold change: 0.364

## RRIRARPPRLPRPRPRPHAPPRP
  shrunken log2 fold change: 0.54

## RRIRMRPPRLPRPRPRPRSVPRP
  shrunken log2 fold change: 0.871

## RRIRDRPPRLPRPRPRPQYAPRP
  shrunken log2 fold change: -0.101

## RRIRCRPPRLPRPRPRPGKWPRP
  shrunken log2 fold change: 0.107

## RRIRMRPPRLPRPRPRPIGPPRP
  shrunken log2 fold change: 0.069

## RRIRGRPPRLPRPRPRPNLKPRP
  shrunken log2 fold change: 0.189

## RRIRMRPPRLPRPRPRPILVPRP
  shrunken log2 fold change: 0.133

## RRIRQRPPRLPRPRPRPTKRPRP
  shrunken log2 fold change: 0.254

## RRIRLRPPRLPRPRPRPIPKPRP
  shrunken log2 fold change: -0.0415

## RRIRHRPPRLPRPRPRPLDQPRP
  shrunken log2 fold change: -0.116

## RRIRRRPPRLPRPRPRPHMQPRP
  shrunken log2 fold change: 0.0237

## RRIRNRPPRLPRPRPRPTEAPRP
  shrunken log2 fold change: 0.21

## RRIRSRPPRLPRPRPRPDKYPRP
  shrunken log2 fold change: -0.845

## RRIRQRPPRLPRPRPRPFPYPRP
  shrunken log2 fold change: 0.0303

## RRIRVRPPRLPRPRPRPTVRPRP
  shrunken log2 fold change: 0.126

## RRIRWRPPRLPRPRPRPNGTPRP
  shrunken log2 fold change: 1.67

## RRIRIRPPRLPRPRPRPPHDPRP
  shrunken log2 fold change: -0.0948

## RRIRRRPPRLPRPRPRPMKCPRP
  shrunken log2 fold change: -0.0984

## RRIRPRPPRLPRPRPRPVAEPRP
  shrunken log2 fold change: 0.394

## RRIRARPPRLPRPRPRPRFQPRP
  shrunken log2 fold change: 0.466

## RRIRKRPPRLPRPRPRPEETPRP
  shrunken log2 fold change: 2.19

## RRIRHRPPRLPRPRPRPTRLPRP
  shrunken log2 fold change: 0.189

## RRIRKRPPRLPRPRPRPVKIPRP
  shrunken log2 fold change: 0.158

## RRIRKRPPRLPRPRPRPVVFPRP
  shrunken log2 fold change: -0.0936

## RRIRRRPPRLPRPRPRPAQYPRP
  shrunken log2 fold change: 0.34

## RRIRRRPPRLPRPRPRPDFNPRP
  shrunken log2 fold change: -0.155

## RRIRHRPPRLPRPRPRPAGLPRP
  shrunken log2 fold change: 0.269

## RRIRCRPPRLPRPRPRPALKPRP
  shrunken log2 fold change: 0.0946

## RRIRLRPPRLPRPRPRPNEMPRP
  shrunken log2 fold change: 0.0287

## RRIRPRPPRLPRPRPRPRFSPRP
  shrunken log2 fold change: -0.0121

## RRIRMRPPRLPRPRPRPWWQPRP
  shrunken log2 fold change: 0.183

## RRIRFRPPRLPRPRPRPCNFPRP
  shrunken log2 fold change: -0.183

## RRIRNRPPRLPRPRPRPEASPRP
  shrunken log2 fold change: 0.0343

## RRIRTRPPRLPRPRPRPYLIPRP
  shrunken log2 fold change: -0.183

## RRIRDRPPRLPRPRPRPNFVPRP
  shrunken log2 fold change: -0.0655

## RRIRERPPRLPRPRPRPQSQPRP
  shrunken log2 fold change: 0.0662

## RRIRFRPPRLPRPRPRPMCMPRP
  shrunken log2 fold change: -0.153

## RRIRYRPPRLPRPRPRPHEQPRP
  shrunken log2 fold change: -0.0662

## RRIRPRPPRLPRPRPRPNFLPRP
  shrunken log2 fold change: 0.0421

## RRIRRRPPRLPRPRPRPWHLPRP
  shrunken log2 fold change: -0.138

## RRIRCRPPRLPRPRPRPELIPRP
  shrunken log2 fold change: -0.0287

## RRIRNRPPRLPRPRPRPCAVPRP
  shrunken log2 fold change: -0.273

## RRIRNRPPRLPRPRPRPCFLPRP
  shrunken log2 fold change: -0.389

## RRIRARPPRLPRPRPRPRPTPRP
  shrunken log2 fold change: 0.867

## RRIRWRPPRLPRPRPRPYIGPRP
  shrunken log2 fold change: -0.127

## RRIRGRPPRLPRPRPRPHKRPRP
  shrunken log2 fold change: 0.34

## RRIRNRPPRLPRPRPRPMAHPRP
  shrunken log2 fold change: -0.0456

## RRIRVRPPRLPRPRPRPESCPRP
  shrunken log2 fold change: 0.242

## RRIRIRPPRLPRPRPRPEMCPRP
  shrunken log2 fold change: 0.0321

## RRIRQRPPRLPRPRPRPWRCPRP
  shrunken log2 fold change: -0.149

## RRIRKRPPRLPRPRPRPQHIPRP
  shrunken log2 fold change: -0.243

## RRIRNRPPRLPRPRPRPSLVPRP
  shrunken log2 fold change: -0.292

## RRIRYRPPRLPRPRPRPPMSPRP
  shrunken log2 fold change: -0.612

## RRIRCRPPRLPRPRPRPCQTPRP
  shrunken log2 fold change: -0.7

## RRIRMRPPRLPRPRPRPWIYPRP
  shrunken log2 fold change: -0.169

## RRIRGRPPRLPRPRPRPIQDPRP
  shrunken log2 fold change: 0.391

## RRIRFRPPRLPRPRPRPPCFPRP
  shrunken log2 fold change: -0.0777

## RRIRGRPPRLPRPRPRPWHWPRP
  shrunken log2 fold change: 0.424

## RRIRERPPRLPRPRPRPIDGPRP
  shrunken log2 fold change: 0.0442

## RRIRWRPPRLPRPRPRPTVRPRP
  shrunken log2 fold change: 1.14

## RRIRCRPPRLPRPRPRPDHMPRP
  shrunken log2 fold change: -0.0636

## RRIRIRPPRLPRPRPRPVINPRP
  shrunken log2 fold change: -0.198

## RRIRGRPPRLPRPRPRPGDNPRP
  shrunken log2 fold change: 0.0889

## RRIRWRPPRLPRPRPRPQKDPRP
  shrunken log2 fold change: -0.154

## RRIRHRPPRLPRPRPRPYISPRP
  shrunken log2 fold change: -0.0543

## RRIRERPPRLPRPRPRPCNFPRP
  shrunken log2 fold change: -0.125

## RRIRQRPPRLPRPRPRPRHYPRP
  shrunken log2 fold change: -0.191

## RRIRTRPPRLPRPRPRPNADPRP
  shrunken log2 fold change: -0.00181

## RRIRYRPPRLPRPRPRPEDVPRP
  shrunken log2 fold change: -0.00968

## RRIRYRPPRLPRPRPRPRQPPRP
  shrunken log2 fold change: 0.137

## RRIRMRPPRLPRPRPRPAFEPRP
  shrunken log2 fold change: 0.763

## RRIRYRPPRLPRPRPRPNMVPRP
  shrunken log2 fold change: -0.0169

## RRIRERPPRLPRPRPRPQKTPRP
  shrunken log2 fold change: -0.0465

## RRIRGRPPRLPRPRPRPLIFPRP
  shrunken log2 fold change: 0.404

## RRIRDRPPRLPRPRPRPMYFPRP
  shrunken log2 fold change: -0.358

## RRIRPRPPRLPRPRPRPRFGPRP
  shrunken log2 fold change: 0.348

## RRIRTRPPRLPRPRPRPGLQPRP
  shrunken log2 fold change: -0.138

## RRIRSRPPRLPRPRPRPDGIPRP
  shrunken log2 fold change: -0.0491

## RRIRIRPPRLPRPRPRPPWIPRP
  shrunken log2 fold change: -0.173

## RRIRIRPPRLPRPRPRPDSKPRP
  shrunken log2 fold change: -0.325

## RRIRPRPPRLPRPRPRPNNQPRP
  shrunken log2 fold change: -0.353

## RRIRVRPPRLPRPRPRPEPDPRP
  shrunken log2 fold change: 0.242

## RRIRTRPPRLPRPRPRPLKMPRP
  shrunken log2 fold change: -0.0458

## RRIRQRPPRLPRPRPRPHYYPRP
  shrunken log2 fold change: -0.0332

## RRIRYRPPRLPRPRPRPEHPPRP
  shrunken log2 fold change: -0.143

## RRIRERPPRLPRPRPRPSTTPRP
  shrunken log2 fold change: -0.285

## RRIRKRPPRLPRPRPRPCCWPRP
  shrunken log2 fold change: 1.1

## RRIRPRPPRLPRPRPRPEMMPRP
  shrunken log2 fold change: 0.00381

## RRIRIRPPRLPRPRPRPRAKPRP
  shrunken log2 fold change: 0.139

## RRIRARPPRLPRPRPRPEYWPRP
  shrunken log2 fold change: 0.515

## RRIRSRPPRLPRPRPRPSCVPRP
  shrunken log2 fold change: -0.152

## RRIRQRPPRLPRPRPRPKGYPRP
  shrunken log2 fold change: -0.00146

## RRIRARPPRLPRPRPRPLGKPRP
  shrunken log2 fold change: 0.237

## RRIRVRPPRLPRPRPRPQYGPRP
  shrunken log2 fold change: -0.0699

## RRIRRRPPRLPRPRPRPNFTPRP
  shrunken log2 fold change: 0.205

## RRIRMRPPRLPRPRPRPCAVPRP
  shrunken log2 fold change: 0.296

## RRIRNRPPRLPRPRPRPVHWPRP
  shrunken log2 fold change: 0.384

## RRIRCRPPRLPRPRPRPRRKPRP
  shrunken log2 fold change: 0.399

## RRIRLRPPRLPRPRPRPKCTPRP
  shrunken log2 fold change: 0.0446

## RRIRPRPPRLPRPRPRPADPPRP
  shrunken log2 fold change: 0.558

## RRIRNRPPRLPRPRPRPYASPRP
  shrunken log2 fold change: -0.397
